In the supplement of paper PMC10567573:

B1: PBXIP1 (parent)
chain: FGEDGIFRHDRLRFRDFVDALEDS

Variants of: B1
Test: protein stability index of a GFP-peptide fusion (GPS, HEK-293T) (PSI 1-6); higher = more stable
Details: c terminus: a fixed tail appended
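Note: lentivirally expressed fusions sorted by FACS into six bins by GFP to DsRed ratio, PSI derived from sequencing read proportions per bin multiplied by bin number.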

Variant | protein stability index
FGEDGIFRHDRLRFRHFVDALEDS [D16H] | 2.09
FGEDGIFRHDRLRFRDFVNALEDS [D19N] | 2.65
FGEDGIFRHDRLRFRDFVGALEDS [D19G] | 2.37
FGEDGIFRHDRLRFRDFVIALEDS [D19I] | 1.91
FGEDGIFRHDRLRFRDFVTALEDS [D19T] | 2.61
FGEDGIFRHDRLRFRDFVEALEDS [D19E] | 2.6
FGEDGIFRHDRLRFRDFVSALEDS [D19S] | 2.4
FGEDGIFRHDRLRFRDFVFALEDS [D19F] | 2.22
FGEDGIFRHDRLRFRDFVYALEDS [D19Y] | 2.35
FGEDGIFRHDRLRFRDFVCALEDS [D19C] | 2.47
FGEDGIFRHDRLRFRDFVHALEDS [D19H] | 2.9
FGEDGIFRHDRLRFRDFVDTLEDS [A20T] | 2.21
FGEDGIFRHDRLRFRDFVDHLEDS [A20H] | 2.42
FGEDGIFRHDRLRFRDFVDELEDS [A20E] | 3.25
FGEDGIFRHDRLRFRDFVDNLEDS [A20N] | 2.78
FGEDGIFRHDRLRFRDFVDWLEDS [A20W] | 2.46
FGEDGIFRHDRLRFRDFVDCLEDS [A20C] | 3.05
FGEDGIFRHDRLRFRDFVDSLEDS [A20S] | 3.18
FGEDGIFRHDVLRFRDFVDALEDS [R11V] | 2.46
FGEDGIFRHDYLRFRDFVDALEDS [R11Y] | 2.35
FGEDGIFRHDMLRFRDFVDALEDS [R11M] | 2.44
FGEDGIFRHDSLRFRDFVDALEDS [R11S] | 2.73
FGEDGIFRHDGLRFRDFVDALEDS [R11G] | 3.12
FGEDGIFRHDPLRFRDFVDALEDS [R11P] | 3.13

Variant | protein stability index
FGEDGIFRHDQLRFRDFVDALEDS [R11Q] | 3.29
FGEDGIFRHDILRFRDFVDALEDS [R11I] | 2.43
FGEDGIFRHDCLRFRDFVDALEDS [R11C] | 2.73
FGEDGIFRHDTLRFRDFVDALEDS [R11T] | 3.02
FGEDGIFRHDDLRFRDFVDALEDS [R11D] | 3.95
FGEDGIFRHDNLRFRDFVDALEDS [R11N] | 3.09
FGEDGIFRHDRLRQRDFVDALEDS [F14Q] | 3.46
FGEDGIFRHDRLRWRDFVDALEDS [F14W] | 2.2
FGEDGIFRHDRLRNRDFVDALEDS [F14N] | 3.71
FGEDGIFRHDRLRKRDFVDALEDS [F14K] | 3.38
FGEDGIFRHDRLRYRDFVDALEDS [F14Y] | 2.57
FGEDGIFRHDRLRIRDFVDALEDS [F14I] | 2.86
FGEDGIFRHDRLRVRDFVDALEDS [F14V] | 3.05
FGEDGIFRHDRLRSRDFVDALEDS [F14S] | 3.81
FGEDGIFRHDRLRRRDFVDALEDS [F14R] | 3.37
FGEDGIFRHDRLRFRDIVDALEDS [F17I] | 3.19
FGEDGIFRHDRLRFRDGVDALEDS [F17G] | 3.57
FGEDGIFRHDRLRFRDDVDALEDS [F17D] | 3.68
FGEDGIFRHDRLRFRDYVDALEDS [F17Y] | 2.97
FGEDGIFRHDRLRFRDCVDALEDS [F17C] | 3.12
FGEDGIFRHDRLRFRDQVDALEDS [F17Q] | 3.58
FGEDKIFRHDRLRFRDFVDALEDS [G5K] | 2.12
FGEDPIFRHDRLRFRDFVDALEDS [G5P] | 3.37
FGEDTIFRHDRLRFRDFVDALEDS [G5T] | 2.88

Variant | protein stability index
FGEDGIFRNDRLRFRDFVDALEDS [H9N] | 3.28
FGEDGIFRGDRLRFRDFVDALEDS [H9G] | 3.19
FGEDGIFRDDRLRFRDFVDALEDS [H9D] | 3.76
FGEDGIFRADRLRFRDFVDALEDS [H9A] | 2.84
FGEDGIFRIDRLRFRDFVDALEDS [H9I] | 2.41
FGEDGIFRQDRLRFRDFVDALEDS [H9Q] | 2.42
FGEDGIFRHDRLPFRDFVDALEDS [R13P] | 3.35
FGEDGIFRHDRLYFRDFVDALEDS [R13Y] | 2.32
FGEDGIFRHDRLQFRDFVDALEDS [R13Q] | 3.74
FGEDGIFRHDRLLFRDFVDALEDS [R13L] | 2.71
FGEDGIFRHDRLTFRDFVDALEDS [R13T] | 3.26
FGEDGIFRHDRLCFRDFVDALEDS [R13C] | 2.73
FGEDGIFRHDRLHFRDFVDALEDS [R13H] | 2.57
FGEDGIFRHDRLNFRDFVDALEDS [R13N] | 3.56
FGEDGIFRHDRLDFRDFVDALEDS [R13D] | 3.29
FGEDGIFRHDRLAFRDFVDALEDS [R13A] | 3.13
FGEDGIFQHDRLRFRDFVDALEDS [R8Q] | 2.97
FGEDGIFVHDRLRFRDFVDALEDS [R8V] | 2.93
FGEDGIFTHDRLRFRDFVDALEDS [R8T] | 2.48
FGEDGIFDHDRLRFRDFVDALEDS [R8D] | 3.74
FGEDGIFWHDRLRFRDFVDALEDS [R8W] | 2.05
FGEDGYFRHDRLRFRDFVDALEDS [I6Y] | 2.24
FGEDGAFRHDRLRFRDFVDALEDS [I6A] | 2.23
FGEDGNFRHDRLRFRDFVDALEDS [I6N] | 3.46

Variant | protein stability index
FGEDGRFRHDRLRFRDFVDALEDS [I6R] | 3.72
FGEDGVFRHDRLRFRDFVDALEDS [I6V] | 2.76
FGEDGHFRHDRLRFRDFVDALEDS [I6H] | 4
FGEDGLFRHDRLRFRDFVDALEDS [I6L] | 2.3
FGELGIFRHDRLRFRDFVDALEDS [D4L] | 1.99
FGEVGIFRHDRLRFRDFVDALEDS [D4V] | 2.76
FGEWGIFRHDRLRFRDFVDALEDS [D4W] | 1.72
FGEEGIFRHDRLRFRDFVDALEDS [D4E] | 3.08
FGETGIFRHDRLRFRDFVDALEDS [D4T] | 2.24
FGEIGIFRHDRLRFRDFVDALEDS [D4I] | 1.73
FGESGIFRHDRLRFRDFVDALEDS [D4S] | 1.77
FGEAGIFRHDRLRFRDFVDALEDS [D4A] | 1.62
FGECGIFRHDRLRFRDFVDALEDS [D4C] | 2.52
FGERGIFRHDRLRFRDFVDALEDS [D4R] | 2.74
FGEDGIFRHTRLRFRDFVDALEDS [D10T] | 2.07
FGEDGIFRHQRLRFRDFVDALEDS [D10Q] | 1.86
FGEDGIFRHGRLRFRDFVDALEDS [D10G] | 2.33
FGEDGIFRHNRLRFRDFVDALEDS [D10N] | 2.83
FGEDGIFRHFRLRFRDFVDALEDS [D10F] | 2.16
FGEDGIFRHRRLRFRDFVDALEDS [D10R] | 2.15
FGEDGIFRHLRLRFRDFVDALEDS [D10L] | 2.16
FGEDGIFRHARLRFRDFVDALEDS [D10A] | 1.96
